From publication PMC7261193, “The ancillary N-terminal region of the yeast AP-1 transcription factor Yap8 contributes to its DNA binding specificity”
Where a chain is given by its changes, count along the chain named.

What was measured:
[1] = target: GST-Yap8-7aa A23T;L26N;S29A;N31R;K35E;L37E;E39R (Saccharomyces cerevisiae) (UniProt Q06596); assay: fluorescence anisotropy; settings: FA: 10 mM Tris-HCl pH 8, 50 mM NaCl, 0.5% NP-40, 1 mM DTT, 5% glycerol, 1 nM DNA, 25C (half volume protein elution buffer). Biotin EMSA: LightShift 1x buffer …
Chain of GST-Yap8-7aa A23T;L26N;S29A;N31R;K35E;L37E;E39R (Saccharomyces cerevisiae) (Q06596 whole entry, stated change not applied): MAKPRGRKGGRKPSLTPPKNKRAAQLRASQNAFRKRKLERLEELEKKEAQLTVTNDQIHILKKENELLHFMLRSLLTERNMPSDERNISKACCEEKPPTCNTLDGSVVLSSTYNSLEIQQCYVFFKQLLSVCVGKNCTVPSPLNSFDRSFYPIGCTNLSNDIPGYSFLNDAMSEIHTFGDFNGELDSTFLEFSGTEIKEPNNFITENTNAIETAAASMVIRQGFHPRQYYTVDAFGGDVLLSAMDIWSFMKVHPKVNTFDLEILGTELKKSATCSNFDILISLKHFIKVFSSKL

[2] = target: GST-Yap8-8aa N20Q;A23T;L26N;S29A;N31R;K35E;L37E;E39R (Saccharomyces cerevisiae) (UniProt Q06596); assay: fluorescence anisotropy; settings: FA: 10 mM Tris-HCl pH 8, 50 mM NaCl, 0.5% NP-40, 1 mM DTT, 5% glycerol, 1 nM DNA, 25C (half volume protein elution buffer). Biotin EMSA: LightShift 1x buffer …
GST-Yap8-R7K,R11K = target: T1, GST-Yap8-R7K,R11K (Saccharomyces cerevisiae, UniProt Q06596 1-294, R7K;R11K); assay: EMSA; FA: 10 mM Tris-HCl pH 8, 50 mM NaCl, 0.5% NP-40, 1 mM DTT, 5% glycerol, 1 nM DNA, 25C (half volume protein elution buffer). Biotin EMSA: LightShift 1x buffer, 50 ng poly(dI-dC), 2.5% glycerol, 0.05% NP-40, 5 mM MgCl2, 20 fmol probe, RT 20 min. 32P EMSA: 10 mM Tris-HCl pH 8.0, 50 mM NaCl, 1 mM DTT, 0.05% NP-40, 100 ng poly(dI-dC), 6% glycerol, 4C 30 min; settings: protein: recombinant; tags: GST (N-term); chain copies: 2; blunt
T1 sequence: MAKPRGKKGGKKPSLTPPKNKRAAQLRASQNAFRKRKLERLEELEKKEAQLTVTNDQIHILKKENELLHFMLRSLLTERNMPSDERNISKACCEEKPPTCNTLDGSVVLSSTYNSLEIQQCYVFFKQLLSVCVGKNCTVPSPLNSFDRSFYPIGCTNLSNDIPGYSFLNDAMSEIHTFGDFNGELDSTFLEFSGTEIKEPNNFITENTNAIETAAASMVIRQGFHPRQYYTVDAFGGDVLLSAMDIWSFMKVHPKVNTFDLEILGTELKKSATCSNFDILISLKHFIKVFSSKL

GST-Yap8-4aa = target: T2, GST-Yap8-4aa (Saccharomyces cerevisiae, UniProt Q06596 1-294, A23T;L26N;S29A;N31R); assay: as above; settings: protein: recombinant, tags: GST (N-term), chain copies: 2, blunt
T2 sequence: T1 sequence with K7R, K11R, A23T, L26N, S29A, N31R

GST-Yap8-G10A = target: T3, GST-Yap8-G10A (Saccharomyces cerevisiae, UniProt Q06596 1-294, G10A); assay: as above; settings: protein: recombinant; tags: GST (N-term); chain copies: 2; blunt
T3 sequence: T1 sequence with K7R, G10A, K11R

GST-Yap8-R11K = target: T4, GST-Yap8-R11K (Saccharomyces cerevisiae, UniProt Q06596 1-294, R11K); assay: as above; settings: protein: recombinant; tags: GST (N-term); chain copies: 2; blunt
T4 sequence: T1 sequence with K7R

GST-Yap8-N20Q = target: T5, GST-Yap8-N20Q (Saccharomyces cerevisiae, UniProt Q06596 1-294, N20Q); assay: as above; settings: protein: recombinant; tags: GST (N-term); chain copies: 2; label: 32P 5'; blunt
T5 sequence: T1 sequence with K7R, K11R, N20Q

GST-Yap8-N20A = target: T6, GST-Yap8-N20A (Saccharomyces cerevisiae, UniProt Q06596 1-294, N20A); assay: as above; settings: protein: recombinant; tags: GST (N-term); chain copies: 2; label: 32P 5'; blunt
T6 sequence: T1 sequence with K7R, K11R, N20A

GST-Yap8 WT [3] = target: T7, GST-Yap8 WT (Saccharomyces cerevisiae, UniProt Q06596 1-294); assay: as above; settings: protein: recombinant; tags: GST (N-term); chain copies: 2; label: 32P 5'; blunt
T7 sequence: T1 sequence with K7R, K11R

GST-Yap8 WT [4] = target: T7, GST-Yap8 WT; assay: fluorescence anisotropy; series c; FA: 10 mM Tris-HCl pH 8, 50 mM NaCl, 0.5% NP-40, 1 mM DTT, 5% glycerol, 1 nM DNA, 25C (half volume protein elution buffer). Biotin EMSA: LightShift 1x buffer, 50 ng poly(dI-dC), 2.5% glycerol, 0.05% NP-40, 5 mM MgCl2, 20 fmol probe, RT 20 min. 32P EMSA: 10 mM Tris-HCl pH 8.0, 50 mM NaCl, 1 mM DTT, 0.05% NP-40, 100 ng poly(dI-dC), 6% glycerol, 4C 30 min; settings: protein: recombinant; tags: GST (N-term); chain copies: 2; label: 5' FAM; blunt

## CTTTTTGTTTGATTAATAATCAACTTTAGCG (double strand) [ACR3-WT (FAM)]
[1]
  Kd: 9.3 nM
[2]
  Kd: 15.1 nM

B1: ACR3short (WT) (dsDNA)
DNA 1: TCTTAATTATCTTTTTGTTTGATTAATAATCAACTTTAGCGGCAACGCTCC
DNA 2: GGAGCGTTGCCGCTAAAGTTGATTATTAATCAAACAAAAAGATAATTAAGA
GST-Yap8-R7K,R11K
  binding result: no binding
GST-Yap8-4aa
  binding result: binds
GST-Yap8-G10A
  binding result: no binding
GST-Yap8-R11K
  binding result: no binding

B2: GSH1short (dsDNA)
DNA 1: TTCTGCCCAACGACGGCTGCCATTAGTCAGCATGGCGCGCACGTGACTACA
DNA 2: TGTAGTCACGTGCGCGCCATGCTGACTAATGGCAGCCGTCGTTGGGCAGAA
GST-Yap8-N20Q
  binding result: no binding
GST-Yap8-N20A
  binding result: no binding
GST-Yap8 WT [3]
  binding result: no binding

B3: ACR3-M3 (FAM) (dsDNA)
DNA 1: CTTTGCGGCTGATTAATAATCAACCGGAGCG
DNA 2: CGCTCCGGTTGATTATTAATCAGCCGCAAAG
GST-Yap8 WT [4]
  Kd: 19.4 ± 4.1 nM

B4: TRX2short (dsDNA)
DNA 1: ATTGTTTATACTCTTAGTAAAGGATGCTCCCTACAAGGTGGCTCTTTTCTTACTAAGCGCGTTCAGTTTC
DNA 2: GAAACTGAACGCGCTTAGTAAGAAAAGAGCCACCTTGTAGGGAGCATCCTTTACTAAGAGTATAAACAAT
GST-Yap8-4aa; label: 32P 5'
  binding result: no binding
